Residue numbers refer to the chain shown, from its start.
T1: human IL-36R extracellular domain expressed with a C-terminal mouse IgG2a Fc tag (hIL-36R-mFc) (human; mouse, UniProt Q9HB29 20-337)
T1 construct: not shown: mouse IgG2a Fc, E98-K330
T1 sequence (looked up): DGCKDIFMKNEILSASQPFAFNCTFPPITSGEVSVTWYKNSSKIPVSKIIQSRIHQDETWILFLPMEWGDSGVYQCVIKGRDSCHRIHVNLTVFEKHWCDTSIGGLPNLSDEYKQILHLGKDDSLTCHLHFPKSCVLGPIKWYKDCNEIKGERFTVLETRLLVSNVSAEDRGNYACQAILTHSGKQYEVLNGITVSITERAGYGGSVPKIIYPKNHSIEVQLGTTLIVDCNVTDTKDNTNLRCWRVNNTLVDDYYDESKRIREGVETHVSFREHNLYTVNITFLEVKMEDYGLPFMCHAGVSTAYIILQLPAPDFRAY

T2: in-line fusion protein of human IL-36R extracellular domain and IL1RAcP extracellular domain expressed with … (human; mouse, UniProt Q9HB29 20-337; Q9NPH3 21-359, limits assumed)
T2 construct: not shown: mouse IgG2a Fc
T2 sequence (looked up): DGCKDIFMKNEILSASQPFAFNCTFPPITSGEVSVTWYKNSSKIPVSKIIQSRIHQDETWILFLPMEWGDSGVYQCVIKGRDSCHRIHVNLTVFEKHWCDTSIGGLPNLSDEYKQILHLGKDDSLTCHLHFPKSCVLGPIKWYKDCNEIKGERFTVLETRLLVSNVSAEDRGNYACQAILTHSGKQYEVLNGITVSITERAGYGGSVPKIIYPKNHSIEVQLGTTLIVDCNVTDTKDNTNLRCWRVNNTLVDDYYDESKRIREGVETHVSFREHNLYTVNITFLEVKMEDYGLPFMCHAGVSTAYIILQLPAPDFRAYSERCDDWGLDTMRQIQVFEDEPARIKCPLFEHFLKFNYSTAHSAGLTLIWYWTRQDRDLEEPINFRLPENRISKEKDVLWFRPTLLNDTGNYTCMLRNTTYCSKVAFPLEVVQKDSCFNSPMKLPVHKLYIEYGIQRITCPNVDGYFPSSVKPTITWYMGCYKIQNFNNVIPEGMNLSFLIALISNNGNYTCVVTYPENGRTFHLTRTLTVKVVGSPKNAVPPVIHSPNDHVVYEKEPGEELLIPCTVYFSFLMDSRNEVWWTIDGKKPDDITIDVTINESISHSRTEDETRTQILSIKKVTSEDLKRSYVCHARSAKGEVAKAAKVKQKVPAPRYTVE

B1: H4H14734P2 (antibody, human IgG4 S228P, kappa, V domains shown)
VH: EVQLVESGGGLVKPGGSLRLSCAASGFIFSNAWMNWVRQAPGKGLAWVGRIKTETDGGTTDYAAPVKGRFTISRDDSKNTLYLQMNSVKTEDTAVYYCTGGYSYGDDSSSWNEGYYYYGMDVWGQGTTVTVSS
VL: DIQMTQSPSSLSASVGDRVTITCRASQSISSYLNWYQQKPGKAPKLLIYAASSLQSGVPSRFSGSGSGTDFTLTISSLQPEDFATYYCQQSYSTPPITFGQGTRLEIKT
notes: Fully human anti-IL-36R antibody; also called H14H14734P2
B2: H4H14760P2 (antibody, human IgG4 S228P, kappa, V domains shown)
VH: QVQLVESGGGVVQPGKSLRLSCAASGFTFSNYGIHWVRQAPGKGLEWVAIILYDGSNQHYADSVKGRFTISRDNSKNTLYLQMNNLRAEDTAVYYCARDLDLWSGYYTNGDGMDVWGQGTTVTVSS
VL: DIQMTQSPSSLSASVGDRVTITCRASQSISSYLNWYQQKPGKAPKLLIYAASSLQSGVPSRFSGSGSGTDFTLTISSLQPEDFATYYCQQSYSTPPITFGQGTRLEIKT
notes: Fully human anti-IL-36R antibody
B3: H4H14757P (antibody, human IgG4 S228P, kappa, V domains shown)
VH: EVQLVESGGGLVQPGRSLRLSCTASGFTFDDYAMHWVRQAPGKGLEWVSGIRWNGGSIGYVDSVKGRFTISRDNAKKSLHLQMNSLKTEDTALYYCAKDIGDILTGFYGEYGMDVWGQGTTVTVSS
VL: DIQMTQSPSSLSASEGDRVTITCRASQSISSYLNWYQQKAGKAPNLLIYAASSLQSGVPSRFSGSGSGTEYTLTISSLQPEDFATYYCQQSYIIPYTFGQGTKLEIKR
notes: as for B2
B4: H4H14758P (antibody, human IgG4 S228P, kappa, V domains shown)
VH: EVQLVESGGGLVQPGRSLRLSCAASGFTFDDYAMHWVRQAPGKGLEWVSSVRWNGGIIGYADSVKGRFTISRDNAKNSLYLQMNSLRPEDTALYYCAKDIGDVLTGYYGEYGMDVWGQGTTVTVSS
VL: B3 VL with E15V, T22A, S30T, S31T, A40P, N45K, E70D, Y71F, I94S
notes: as for B2

Target: T1, human IL-36R extracellular domain …
Experiment: SPR Biacore 4000, mAb captured on anti-hFc, 25C
Experimental: (§1) Equilibrium dissociation constants (KD values) for IL-36R binding to purified anti-IL-36R antibodies were determined using a real-time surface plasmon resonance biosensor using a Biacore 4000 instrument. The Biacore sensor surface was first derivatized by amine coupling with a monoclonal mouse anti-human Fc antibody (GE, # BR-1008-39) to capture anti-IL-36R monoclonal antibodies. All binding studies were performed in 0.01 M Hepes pH 7.4, 0.15 M NaCl, 3 mM EDTA, and 0.05% v/v Surfactant Tween-20 (HBS-ET running buffer) at 25° C. and 37° C. Different concentrations of IL-36R reagents, human IL-36R extracellular domain expressed with a C-terminal myc-myc-hexahistidine tag (hIL-36R-MMH), Macaca fascicularis IL-36R extracellular domain expressed with a C-terminal myc-myc-hexahistidine tag (mfIL-36R-MMH: mROR1 signal sequence (M1-A29). Macaca fascicularis IL36R_ecto domain (D20-A336).mycmycHis6), human IL-36R extracellular domain expressed with a C-terminal mouse IgG2a Fc tag (hIL-36R-mFc: mROR1 signal sequence (M1-A29)-human IL36R (D20-Y337)-mouse IgG2aFc (E98-K330)) or an in-line fusion protein of human IL-36R extracellular domain and IL1RAcP extracellular domain expressed with mouse IgG2a Fc tag (hIL-36R-Trap-mFc: mROR1 signal sequence (M1-A29)-human IL36R ecto domain (D20-Y337)-human IL1RacP ecto domain(S21-E359)-mouse IgG2aFc) in HBS-ET running buffer (ranging from 100 nM to 3.7 nM, 3-fold dilutions) were injected over the anti-IL-36R antibody captured surface for 4 minutes at a flow rate of 30 μL/minute and their dissociation in HBS-ET running buffer was monitored for 10 minutes. Kinetic association rate constant (kₐ) and dissociation rate constant (kd) were determined by fitting the real-time sensorgrams to a 1:1 binding model using Scrubber 2.0c curve fitting software. Binding dissociation equilibrium constants (KD) and dissociative half-lives (t_{1/2}) were calculated from the kinetic rate constants as: […]

Binder	100 nM hIL-36R-mFc Bound (RU)	Kd [pM]	koff [s⁻¹]	kon [M⁻¹ s⁻¹]	t1/2 [min]
B1	77	1630	0.000101	62200	114
B2	121	526	0.000109	207000	106
B3	167	173	9.97e-05	575000	116
B4	161	309	0.000163	526000	71

Target: T2, in-line fusion protein of human IL-36R …
Experiment: SPR Biacore 4000, mAb captured on anti-hFc, 25C
Experimental: as §1

Binder	100 nM hIL-36R-Trap-mFc Bound (RU)	Kd [pM]	koff [s⁻¹]	kon [M⁻¹ s⁻¹]	t1/2 [min]
B1	85	2240	0.00011	48900	105
B2	134	636	0.0001	158000	115
B3	202	212	0.000103	485000	113
B4	197	413	0.00018	436000	64

Target: T1, human IL-36R extracellular domain …
Experiment: SPR Biacore 4000, mAb captured on anti-hFc, 37C
Experimental: as §1

Binder	100 nM hIL-36R-mFc Bound (RU)	Kd [pM]	koff [s⁻¹]	kon [M⁻¹ s⁻¹]	t1/2 [min]
B1	96	2310	0.000122	52700	95
B2	173	1020	0.000222	217000	52
B3	235	243	0.00015	616000	77
B4	210	517	0.000286	554000	40

Target: T2, in-line fusion protein of human IL-36R …
Experiment: SPR Biacore 4000, mAb captured on anti-hFc, 37C
Experimental: as §1

Binder	100 nM hIL-36R-Trap-mFc Bound (RU)	Kd [pM]	koff [s⁻¹]	kon [M⁻¹ s⁻¹]	t1/2 [min]
B1	99	2960	0.000143	48400	81
B2	195	1700	0.000283	166000	41
B3	281	374	0.000196	523000	59
B4	251	777	0.000363	468000	32

Target: T3, human IL-36R extracellular domain expressed with a C-terminal myc-myc-hexahistidine tag (hIL-36R-MMH) (human, UniProt Q9HB29 20-337)
T3 construct: also called Human IL-36R-MMH; REGN2105
Experiment: SPR Biacore T200, mAb captured on anti-hFc, 25C, PBS-T pH 6.0 running buffer
Experimental: (§2) Additional binding experiments were performed to determine the effect of pH on the rate of dissociation of IL-36R bound to purified anti-IL-36R antibodies, which was determined using a real-time surface plasmon resonance biosensor using a Biacore T200 instrument. The Biacore sensor surface was first derivatized by amine coupling with a monoclonal mouse anti-human Fc antibody (GE, # BR-1008-39) to capture anti-IL-36R antibodies. […] Different concentrations of hIL-36R-MMH and mfIL-36R-MMH prepared in PBS-T, pH7.4 buffer (ranging from 100 nM to 11.11 nM, 3-fold dilutions) were injected over the anti-IL-36R antibody captured surface for 4 minutes at a flow rate of 50 μL/minute and their dissociation in two running buffers, PBS-T, pH7.4 and PBS-T, pH 6.0, was monitored for 10 minutes. All of these binding kinetics experiments were performed at 25° C. and 37° C. Kinetic dissociation constant (kd) were determined by fitting the real-time sensorgrams to a 1:1 binding model using Scrubber 2.0c curve fitting software. Binding dissociative half-lives (t_{1/2}) were calculated from kd as: […]

Binder	100 nM Human IL-36R-MMH Bound (RU)	koff [s⁻¹]	t1/2 [min]
B1	18	0.000787	15
B2	69	0.000972	12
B3	98	0.000887	13
B4	103	0.0018	6

Target: T3, human IL-36R extracellular domain …
Experiment: SPR Biacore T200, mAb captured on anti-hFc, 25C, PBS-T pH 7.4 running buffer
Experimental: as §2

Binder	100 nM Human IL-36R-MMH Bound (RU)	koff [s⁻¹]	t1/2 [min]
B1	20	0.000738	16
B2	80	0.000545	21
B3	105	0.000597	19
B4	108	0.00112	10

Target: T3, human IL-36R extracellular domain …
Experiment: SPR Biacore T200, mAb captured on anti-hFc, 37C, PBS-T pH 6.0 running buffer
Experimental: as §2

Binder	100 nM hIL-36R-MMH Bound (RU)	koff [s⁻¹]	t1/2 [min]
B1	17	0.00169	7
B2	85	0.0039	3
B3	109	0.0026	4
B4	120	0.00339	3

Target: T3, human IL-36R extracellular domain …
Experiment: SPR Biacore T200, mAb captured on anti-hFc, 37C, PBS-T pH 7.4 running buffer
Experimental: as §2

Binder	100 nM hIL-36R-MMH Bound (RU)	koff [s⁻¹]	t1/2 [min]
B1	20	0.00121	10
B2	94	0.00187	6
B3	113	0.00129	9
B4	126	0.00226	5
